T1: B7H3 (UniProt Q5ZPR3 29-466, limits assumed)
T1 sequence (looked up): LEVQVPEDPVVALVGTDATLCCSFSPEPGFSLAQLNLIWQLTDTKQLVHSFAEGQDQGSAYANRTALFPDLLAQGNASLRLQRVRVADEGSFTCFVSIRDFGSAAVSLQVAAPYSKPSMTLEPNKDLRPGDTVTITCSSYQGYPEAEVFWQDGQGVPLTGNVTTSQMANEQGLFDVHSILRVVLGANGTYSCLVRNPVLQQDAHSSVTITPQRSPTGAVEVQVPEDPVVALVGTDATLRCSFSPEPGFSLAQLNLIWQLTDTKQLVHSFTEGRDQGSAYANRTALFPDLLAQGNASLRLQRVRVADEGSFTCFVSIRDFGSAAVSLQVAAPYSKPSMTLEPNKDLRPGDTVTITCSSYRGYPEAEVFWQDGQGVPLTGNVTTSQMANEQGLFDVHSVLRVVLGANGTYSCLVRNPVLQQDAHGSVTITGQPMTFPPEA

B1: Ly2438 (bispecific antibody)
chain 1: QVQLVQSGAEVKKPGASVKVSCKASGYTFTDFWMSWVRQAPGQGLEWMGQIYPNTGTTHSNEKFKGRVTMTRDTSTSTVYMELSSLRSEDTAVYYCARSYHISTTPNWFAYWGQGTLVTVSSASTKGPSVFPLAPSSKSTSGGTAALGCLVKDYFPEPVTVSWNSGALTSGVHTFPAVLQSSGLYSLSSVVTVPSSSLGTQTYICNVNHKPSNTKVDKKVEPKSCGGGGSGGGGSGGGGSGGGGSEVQLVESGGGLVQPGGSLRLSCAASGFTFTNYGLHWVRQAPGKGLEWVSSISPSGGVTYYRDSVKGRFTISRDNSKNTLYLQMNSLRAEDTAVYYCAKPFLGWGGANWIAHWGQGTLVTVSSGGGGSDKTHTCPPCPAPEAAGPSVFLFPPKPKDTLMISRTPEVTCVVVDVSHEDPEVKFNWYVDGVEVHNAKTKPREEQYNSTYRVVSVLTVLHQDWLNGKEYKCKVSNKALPAPIEKTISKAKGQPREPQVYTLPPSREEMTKNQVSLWCLVKGFYPSDIAVEWESNGQPENNYKTTPPVLDSDGSFFLYSKLTVDKSRWQQGNVFSCSVMHEALHNHYTQKSLSLSPG
chain 2: QVQLVQSGAEVKKPGASVKVSCKASGYTFTDFWMSWVRQAPGQGLEWMGQIYPNTGTTHSNEKFKGRVTMTRDTSTSTVYMELSSLRSEDTAVYYCARSYHISTTPNWFAYWGQGTLVTVSSASTKGPSVFPLAPSSKSTSGGTAALGCLVKDYFPEPVTVSWNSGALTSGVHTFPAVLQSSGLYSLSSVVTVPSSSLGTQTYICNVNHKPSNTKVDKKVEPKSCGGGGSGGGGSGGGGSGGGGSDIQMTQSPSSLSASVGDRVTITCLASEDISNDLAWYQQKPGKAPKLLIYFVDRLLDGVPSRFSGSGSGTDFTLTISSLQPEDFATYYCQQSYKYPPTFGQGTKLEIKGGGGSDKTHTCPPCPAPEAAGPSVFLFPPKPKDTLMISRTPEVTCVVVDVSHEDPEVKFNWYVDGVEVHNAKTKPREEQYNSTYRVVSVLTVLHQDWLNGKEYKCKVSNKALPAPIEKTISKAKGQPREPQVYTLPPSREEMTKNQVSLSCAVKGFYPSDIAVEWESNGQPENNYKTTPPVLDSDGSFFLVSKLTVDKSRWQQGNVFSCSVMHEALHNRFTQKSLSLSPG
light: DIQMTQSPSSLSASVGDRVTITCKASQNVYKKLEWYQQKPGKVPKVLIYHTNILQTGVPSRFSGSGSGTDYTLTISSLQPEDVATYYCYQWNSGPTFGGGTKVEIKRTVAAPSVFIFPPSDEQLKSGTASVVCLLNNFYPREAKVQWKVDNALQSGNSQESVTEQDSKDSTYSLSSTLTLSKADYEKHKVYACEVTHQGLSSPVTKSFNRGEC
notes: PD-L1/CD40: two PD-L1 Fabs (Ly076), central CD40 Fv (TM559)
B2: Ly2444 (bispecific antibody, human IgG1, kappa)
chain 1: QVQLVQSGAEVKKPGASVKVSCKASGYTFTDFWMSWVRQAPGQGLEWMGQIYPNTGTTHSNEKFKGRVTMTRDTSTSTVYMELSSLRSEDTAVYYCARSYHISTTPNWFAYWGQGTLVTVSSASTKGPSVFPLAPSSKSTSGGTAALGCLVKDYFPEPVTVSWNSGALTSGVHTFPAVLQSSGLYSLSSVVTVPSSSLGTQTYICNVNHKPSNTKVDKKVEPKSCDKTHTCPPCPAPEAAGPSVFLFPPKPKDTLMISRTPEVTCVVVDVSHEDPEVKFNWYVDGVEVHNAKTKPREEQYNSTYRVVSVLTVLHQDWLNGKEYKCKVSNKALPAPIEKTISKAKGQPREPQVYTLPPSREEMTKNQVSLWCLVKGFYPSDIAVEWESNGQPENNYKTTPPVLDSDGSFFLYSKLTVDKSRWQQGNVFSCSVMHEALHNHYTQKSLSLSPGGGGGSGGGGSGGGGSGGGGSEVQLVESGGGLVQPGGSLRLSCAASGFTFTNYGLHWVRQAPGKGLEWVSSISPSGGVTYYRDSVKGRFTISRDNSKNTLYLQMNSLRAEDTAVYYCAKPFLGWGGANWIAHWGQGTLVTVSS
chain 2: QVQLVQSGAEVKKPGASVKVSCKASGYTFTDFWMSWVRQAPGQGLEWMGQIYPNTGTTHSNEKFKGRVTMTRDTSTSTVYMELSSLRSEDTAVYYCARSYHISTTPNWFAYWGQGTLVTVSSASTKGPSVFPLAPSSKSTSGGTAALGCLVKDYFPEPVTVSWNSGALTSGVHTFPAVLQSSGLYSLSSVVTVPSSSLGTQTYICNVNHKPSNTKVDKKVEPKSCDKTHTCPPCPAPEAAGPSVFLFPPKPKDTLMISRTPEVTCVVVDVSHEDPEVKFNWYVDGVEVHNAKTKPREEQYNSTYRVVSVLTVLHQDWLNGKEYKCKVSNKALPAPIEKTISKAKGQPREPQVYTLPPSREEMTKNQVSLSCAVKGFYPSDIAVEWESNGQPENNYKTTPPVLDSDGSFFLVSKLTVDKSRWQQGNVFSCSVMHEALHNRFTQKSLSLSPGGGGGSGGGGSGGGGSGGGGSDIQMTQSPSSLSASVGDRVTITCLASEDISNDLAWYQQKPGKAPKLLIYFVDRLLDGVPSRFSGSGSGTDFTLTISSLQPEDFATYYCQQSYKYPPTFGQGTKLEIK
light: B1 light
notes: PD-L1/CD40: two PD-L1 Fabs (Ly076), terminal CD40 Fv (TM559)
B3: Ly1963 (other)
chain 1: QVQLVQSGAEVKKPGASVKVSCKASGYTFTSYVMHWVRQKPGQGLEWIGYINPYNEGTESTDKFKGRATMTSDKSTSTVYMELSSLRSEDTAVYYCASIYYGYEGTYFGVWGQGTLVTVSSASTKGPSVFPLAPSSKSTSGGTAALGCLVKDYFPEPVTVSWNSGALTSGVHTFPAVLQSSGLYSLSSVVTVPSSSLGTQTYICNVNHKPSNTKVDKKVEPKSCGGGGSGGGGSGGGGSGGGGSEVQLVESGGGLVQPGGSLRLSCAASGFTFSTYAMNWVRQAPGKGLEWVGRIRSKYNNYATYYADSVKGRFTISRDDSKNSLYLQMNSLKTEDTAVYYCVRHGNFGNSYVSWFAYWGQGTLVTVSSGGGGSDKTHTCPPCPAPEAAGPSVFLFPPKPKDTLMISRTPEVTCVVVDVSHEDPEVKFNWYVDGVEVHNAKTKPREEQYNSTYRVVSVLTVLHQDWLNGKEYKCKVSNKALPAPIEKTISKAKGQPREPQVYTLPPSREEMTKNQVSLWCLVKGFYPSDIAVEWESNGQPENNYKTTPPVLDSDGSFFLYSKLTVDKSRWQQGNVFSCSVMHEALHNHYTQKSLSLSPGGGGGSGGGGSGGGGSGGGGSQVQLVQSGAEVKKPGASVKVSCKASGYTFAGFEMHWVRQAPGQGLEWMGAIDPKTGGTDYNQKFKDRVTMTRDTSISTAYMELSRLRSDDTAVYYCARDLGYFDVWGQGTLVTVSS
chain 2: QVQLVQSGAEVKKPGASVKVSCKASGYTFTSYVMHWVRQKPGQGLEWIGYINPYNEGTESTDKFKGRATMTSDKSTSTVYMELSSLRSEDTAVYYCASIYYGYEGTYFGVWGQGTLVTVSSASTKGPSVFPLAPSSKSTSGGTAALGCLVKDYFPEPVTVSWNSGALTSGVHTFPAVLQSSGLYSLSSVVTVPSSSLGTQTYICNVNHKPSNTKVDKKVEPKSCGGGGSGGGGSGGGGSGGGGSQAVVTQEPSLTVSPGGTVTLTCRSSTGAVTTSNYANWVQQKPGQAPRGLIGGTNKRAPWTPARFSGSLLGGKAALTITGAQAEDEADYYCALWYSNLWVFGGGTKLTVLGGGGSDKTHTCPPCPAPEAAGPSVFLFPPKPKDTLMISRTPEVTCVVVDVSHEDPEVKFNWYVDGVEVHNAKTKPREEQYNSTYRVVSVLTVLHQDWLNGKEYKCKVSNKALPAPIEKTISKAKGQPREPQVYTLPPSREEMTKNQVSLSCAVKGFYPSDIAVEWESNGQPENNYKTTPPVLDSDGSFFLVSKLTVDKSRWQQGNVFSCSVMHEALHNHYTQKSLSLSPGGGGGSGGGGSGGGGSGGGGSDIQMTQSPSSLSASVGDRVTITCRASQDIRSNLNWYQQKPGGAVKLLIYYTSRLHSGVPSRFSGSGSGTDYTLTISSLQPEDFATYFCQQSEKLPRTFGGGTKVEIR
light: EIVLTQSPATLSLSPGERATLSCRASSSVSYMHWYQQKPGQAPRPWIYATSNLASGIPARFSGSRSGTDYTLTISSLEPEDFAVYYCQQWSSNTLTFGGGTKVEIKRTVAAPSVFIFPPSDEQLKSGTASVVCLLNNFYPREAKVQWKVDNALQSGNSQESVTEQDSKDSTYSLSSTLTLSKADYEKHKVYACEVTHQGLSSPVTKSFNRGEC
notes: Tri-specific antibody B7H3 (two Fabs) / CD3 (central Fv) / CD137 (terminal Fv)
B4: Ly2122 (bispecific antibody, human IgG1, kappa)
chain 1: QVQLVQSGAEVKKPGASVKVSCKASGYTFTSYVMHWVRQKPGQGLEWIGYINPYNEGTESTDKFKGRATMTSDKSTSTVYMELSSLRSEDTAVYYCASIYYGYEGTYFGVWGQGTLVTVSSASTKGPSVFPLAPSSKSTSGGTAALGCLVKDYFPEPVTVSWNSGALTSGVHTFPAVLQSSGLYSLSSVVTVPSSSLGTQTYICNVNHKPSNTKVDKKVEPKSCDKTHTCPPCPAPEAAGPSVFLFPPKPKDTLMISRTPEVTCVVVDVSHEDPEVKFNWYVDGVEVHNAKTKPREEQYNSTYRVVSVLTVLHQDWLNGKEYKCKVSNKALPAPIEKTISKAKGQPREPQVYTLPPSREEMTKNQVSLWCLVKGFYPSDIAVEWESNGQPENNYKTTPPVLDSDGSFFLYSKLTVDKSRWQQGNVFSCSVMHEALHNHYTQKSLSLSPGGGGGSGGGGSGGGGSGGGGSQVQLVQSGAEVKKPGASVKVSCKASGYTFAGFEMHWVRQAPGQGLEWMGAIDPKTGGTDYNQKFKDRVTMTRDTSISTAYMELSRLRSDDTAVYYCARDLGYFDVWGQGTLVTVSS
chain 2: QVQLVQSGAEVKKPGASVKVSCKASGYTFTSYVMHWVRQKPGQGLEWIGYINPYNEGTESTDKFKGRATMTSDKSTSTVYMELSSLRSEDTAVYYCASIYYGYEGTYFGVWGQGTLVTVSSASTKGPSVFPLAPSSKSTSGGTAALGCLVKDYFPEPVTVSWNSGALTSGVHTFPAVLQSSGLYSLSSVVTVPSSSLGTQTYICNVNHKPSNTKVDKKVEPKSCDKTHTCPPCPAPEAAGPSVFLFPPKPKDTLMISRTPEVTCVVVDVSHEDPEVKFNWYVDGVEVHNAKTKPREEQYNSTYRVVSVLTVLHQDWLNGKEYKCKVSNKALPAPIEKTISKAKGQPREPQVYTLPPSREEMTKNQVSLSCAVKGFYPSDIAVEWESNGQPENNYKTTPPVLDSDGSFFLVSKLTVDKSRWQQGNVFSCSVMHEALHNRFTQKSLSLSPGGGGGSGGGGSGGGGSGGGGSDIQMTQSPSSLSASVGDRVTITCRASQDIRSNLNWYQQKPGGAVKLLIYYTSRLHSGVPSRFSGSGSGTDYTLTISSLQPEDFATYFCQQSEKLPRTFGGGTKVEIR
light: B3 light
notes: Bispecific B7H3 (two Fabs) / CD137 (terminal Fv)

How the values were obtained:
PD-L1 = target: T2, PD-L1 (human, UniProt Q9NZQ7 19-238, limits assumed); experiment: FCM or ELISA
T2 construct: The reporter assay used Raji cells expressing human PD-L1
T2 sequence (Q9NZQ7 19-238 limits assumed): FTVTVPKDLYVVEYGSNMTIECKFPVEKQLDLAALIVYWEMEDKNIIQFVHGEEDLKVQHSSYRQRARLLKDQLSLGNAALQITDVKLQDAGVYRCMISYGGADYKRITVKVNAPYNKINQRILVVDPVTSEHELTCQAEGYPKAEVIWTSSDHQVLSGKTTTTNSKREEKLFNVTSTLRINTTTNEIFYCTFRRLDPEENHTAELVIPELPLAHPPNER

CD137 = target: T3, CD137 (UniProt Q07011 24-186, limits assumed); experiment: FCM or ELISA (graded summary table)
T3 construct: also called 4-1BB

B7H3 = target: T1, B7H3; experiment: FCM or ELISA (graded summary table)

Binder | binding result (PD-L1) | binding result (CD137) | binding result (B7H3)
B1 | binds | – | –
B2 | binds | – | –
B3 | – | binds | binds
B4 | – | binds | binds

— patent US20250388669A1 (published 2025)
